Measurements from patent US11248019B2, “Trityl-mono-GalNAc compounds and their use” (Hoffmann-La Roche Inc., priority 2016, dated 2022).

Assays:
Assay type in all cases: in vivo, C57BL6/J mice
[1] = Oligonucleotide content in liver and kidney by ELISA (Example 7); conditions: 0.1 mg/kg single iv dose
Protocol: (§1) Female C57BL6/J mice (5/group appr. 20 g at arrival) were injected intravenous (iv) with a single dose saline or 0.1 mg/kg of GalNAc conjugated LNA antisense oligonucleotide (Compound J, K, L, B or C of the invention or reference compound M). Blood samples of 50 μl were collected pre-dosing at day minus 6, and post dosing at day 3, 7, 10 and 14. The animals were sacrificed at day 7 or 14 and total serum was collected as well as liver and kidney.
The oligonucleotide content in the liver and kidney was measured using ELISA (see for example Straarup et al 2010 Nucleic Acid Res Vol 38 pp 7100-7111), results are shown in Table 16.

[2] = Oligonucleotide content in liver and kidney by ELISA (Example 4); conditions: for Oligonucleotide content, Kidney / Oligonucleotide content, Liver: day 10
Protocol: (§2) Female C57BL6/J mice (5/group appr. 20 g at arrival) were injected subcutaneous (sc) with a single dose saline or 0.25 mg/kg unconjugated LNA-antisense oligonucleotide (compound F) or with 0.25 mg/kg or 0.1 mg/kg of GalNAc conjugated LNA antisense oligonucleotide (Compound C or E of the invention or reference compound G). Blood samples of 50 μl were collected pre-dosing at day minus 6, and post dosing at day 3 and 7. The animals were sacrificed at day 10 and total serum was collected as well as liver and kidney.
The oligonucleotide content in the liver and kidney was measured using ELISA (see for example Straarup et al 2010 Nucleic Acid Res Vol 38 pp 7100-7111), results are shown in Table 6.

ALT in serum (Example 7) = conditions: 0.1 mg/kg single iv dose
Protocol: as §1
ALT (Alanine aminotransferase) was measured using ABX Pentra ALT CP reagent (A11A01627 Triolab, Brondby, Denmark. The results are shown in table 17.

ApoB mRNA [3] = test: ApoB mRNA knockdown in liver and kidney by qPCR, single sc dose, sacrifice day 10 (Example 4); conditions: for ApoB mRNA expression as % of saline, mRNA kidney: day 10, kidney; for ApoB mRNA expression as % of saline, mRNA liver: day 10, liver; for knock down of ApoB mRNA compared to the GalNAc2 cluster conjugated LNA oligonucleotide (compound G) / knock down of ApoB mRNA in the liver compared to unconjugated (naked) oligonucleotide (compound F): in words; for knock down of ApoB mRNA compared to the GalNAc2 cluster conjugated LNA oligonucleotide (compound G): high dose (0.25 mg/kg); for knock down of ApoB mRNA in the liver compared to unconjugated (naked) oligonucleotide (compound F): single sc dose, day 10
Protocol: as §2
(§3) ApoB mRNA knockdown was analyzed by qPCR. In brief, RNA was isolated from homogenized liver and kidney using MagnaPure RNA Isolation and purification system (catalog #03604721001 and #05467535001; Roche) according to the manufacturer's instructions. RT-QPCR was done using Taqman Fast Universal PCR Master Mix 2×(Applied Biosystems Cat #4364103) and Taqman gene expression assay (mApoB, Mn01545150_m1 and mGAPDH #4352339E) following the manufacturers protocol.

ApoB mRNA [4] = test: ApoB mRNA knockdown in liver and kidney by qPCR, single iv dose 0.1 mg/kg, day 7 or 14 (Example 7); conditions: 0.1 mg/kg single iv dose
Protocol: as §3, §1
ApoB mRNA knock down was measured as described in example 4.

Substance	Oligonucleotide content, Avg kidney ([1]; Day 7, kidney tissue) [µg/g]	Oligonucleotide content, Avg liver ([1]; Day 7, liver tissue) [µg/g]	Oligonucleotide content, Avg kidney ([1]; Day 14, kidney tissue) [µg/g]	Oligonucleotide content, Avg liver ([1]; Day 14, liver tissue) [µg/g]	Oligonucleotide content, Kidney ([2]; 0.1 mg/kg single sc dose) [μg/g tissue]	Oligonucleotide content, Liver ([2]; 0.1 mg/kg single sc dose) [μg/g tissue]	Oligonucleotide content, Kidney ([2]; 0.25 mg/kg single sc dose) [μg/g tissue]	Oligonucleotide content, Liver ([2]; 0.25 mg/kg single sc dose) [μg/g tissue]	uptake in liver and kidney compared to the unconjugated oligonucleotide (compound F) ([2]; in words)	ALT levels (U/L) in serum as % of saline (ALT in serum (Example 7); Day 7)	ALT levels (U/L) in serum as % of saline (ALT in serum (Example 7); Day 14)	ApoB mRNA expression as % of saline, mRNA kidney (ApoB mRNA [3]; 0.1 mg/kg single sc dose)	ApoB mRNA expression as % of saline, mRNA liver (ApoB mRNA [3]; 0.1 mg/kg single sc dose)	ApoB mRNA expression as % of saline, mRNA kidney (ApoB mRNA [3]; 0.25 mg/kg single sc dose)	ApoB mRNA expression as % of saline, mRNA liver (ApoB mRNA [3]; 0.25 mg/kg single sc dose)	knock down of ApoB mRNA compared to the GalNAc2 cluster conjugated LNA oligonucleotide (compound G) (ApoB mRNA [3])	ApoB mRNA/mGAPDH expression as % of saline, Avg kidney (ApoB mRNA [4]; Day 7, kidney)	ApoB mRNA/mGAPDH expression as % of saline, Avg liver (ApoB mRNA [4]; Day 7, liver)	ApoB mRNA/mGAPDH expression as % of saline, Avg kidney (ApoB mRNA [4]; Day 14, kidney)	ApoB mRNA/mGAPDH expression as % of saline, Avg liver (ApoB mRNA [4]; Day 14, liver)	further results
5′-cOaOGS^mCSaStStSgSgStSaStSTS^mCSA-3′ [Compound C]	0.307	0.493	0.118	0.209	0.080	0.028	0.080	0.028	enhanced uptake in the liver and reduced uptake in the kidney	136.7 % of saline	111.3 % of saline	72.4 % of saline	69.6 % of saline	56.1 % of saline	24.0 % of saline	better knockdown	93.8 % of saline	63.2 % of saline	74.4 % of saline	116.3 % of saline	liver/kidney distribution ratio compared to GalNAc2 conjugated LNA oligonucleotide (compound G) ([2]; in words, high dose): improved liver/kidney distribution ratio; knock down of ApoB mRNA in the liver compared to unconjugated (naked) oligonucleotide (compound F) (ApoB mRNA [3]): improved knock down
5′-cOaOGS^mCSaStStSgSgStSaStSTS^mCSA-3′ [B]	0.353	0.161	0.152	0.066						177.3 % of saline	108.5 % of saline						62.5 % of saline	49.2 % of saline	100.3 % of saline	112.8 % of saline	
5′-GS^mCSaStStSgSgStSaStSTS^mCSAOcOa-3′ [E]					0.094	0.021	0.243	0.069	enhanced uptake in the liver and reduced uptake in the kidney			84.8 % of saline	60.5 % of saline	51.0 % of saline	34.9 % of saline	comparable					knock down of ApoB mRNA in the liver compared to unconjugated (naked) oligonucleotide (compound F) (ApoB mRNA [3]): improved knock down
5′-cOaOGS^mCSaStStSgSgStSaStSTS^mCSA-3′ [K]	0.275	0.401	0.129	0.173						170.3 % of saline	77.3 % of saline						80.2 % of saline	48.7 % of saline	86.2 % of saline	112.4 % of saline	
